Positions count from the first letter of the chain named.

This test concerns the target Human IgE antibody (human). Description: cell-based or functional assay.

B1: FP132 (Fc fusion)
chain: DKTHTCPPCPAPEAAGAPSVFLFPPKPKDTLMISRTPEVTCVVVDVSHEDPEVKFNWYVDGVEVHNAKTKPREEQQNSTYRVVSVLTVLHQDWLNGKEYKCKVSNKALKAPIEKTISKAKGQPREPQVYTLPPSRDELTKNQVSLTCLVKGFYPSDIAVEWESNGQPENNYKTTPPVLDSDGSFFLYSKLTVDKSRWQQGNVFSCSVMHEALHNHYTQKSLSLSPGGGGGSGGGGSTALGRRKAEDRIKETLWADGVKIDEKDFEHIKSSHEDYFAVEYGKGSGYYDVNKKMDSEDTALCVGAVVTNMFHWWVDQNRENIEKFKKQDPENNGVMKFEGVKEATVDELNEFYRDNRDNYADQSRFFDLIKKHFGNKALNPEELFELYFNGFYYGSSHRYIEDNEPAQNNLFSKVLENNKLLNPERSYGIDGFSNNVINALKSHKVLGLVYTTPLRYRHIISMWGADIDQDGKVKAIYVTDSDDREITFNDNSKRRIGMIRYDVLVDDNGNIRFTGKGATHKEEGAIYAGLYSLSRGDEVWEDYFKKYPEVQENL
For B1, the “EC50 CE-SDS IgE” value came to 1.27 nM.

B2: FP133 (Fc fusion)
chain: B1 chain with G230S, S231K, G235S, S236K
Consider B2, for which the “EC50 CE-SDS IgE” value turned out to be 1.15 nM.

B3: FP139 (Fc fusion)
chain: B1 chain with G228S, G229S, G230A, S231P, G233S, G234S, G235A, S236P
For B3, the “EC50 CE-SDS IgE” value came out at 0.11 nM.

B4: FP136 (Fc fusion)
chain: B1 chain with G228S, G229A, S231K, G233S, G234A, S236K
Take B4: the “EC50 CE-SDS IgE” value worked out at 0.61 nM.

B5: FP17 (Fc fusion)
chain: DKTHTCPPCPAPEAAGAPSVFLFPPKPKDTLMISRTPEVTCVVVDVSHEDPEVKFNWYVDGVEVHNAKTKPREEQQNSTYRVVSVLTVLHQDWLNGKEYKCKVSNKALKAPIEKTISKAKGQPREPQVYTLPPSRDELTKNQVSLTCLVKGFYPSDIAVEWESNGQPENNYKTTPPVLDSDGSFFLYSKLTVDKSRWQQGNVFSCSVMHEALHNHYTQKSLSLSPGGGGSGGGGSGGGGSGGGGSGGGGSGGGGSTALGRRKAEDRIKETLWADGVKIDEKDFEHIKSSHEDYFAVEYGKGSGYYDVNKKMDSEDTALCVGAVVTNMFHWWVDQNRENIEKFKKQDPENNGVMKFNGVKEATVDELNHFYKEYQSNKYADQSRFFDLIKKHFGNKALNPEELFELYFNGFYYGSSHRYIEDNKPAQNNLFSKVLENNKLLNPERSYGIDGFSNNVINALKSHKVLGLVHTTPLRYRHIISMWGADIDQDGKVKAIYVTDSDDREITFNDNSKRRIGMIRYDVLVDDNGNIRFTGKGATHKEEGAIYAGLYSLSRGDEVWEDYFKKYPEVQENL
Turning to B5, the “EC50 CE-SDS IgE” value was determined as 56.3 nM.

B6: FP11 (Fc fusion)
chain: DKTHTCPPCPAPEAAGAPSVFLFPPKPKDTLMISRTPEVTCVVVDVSHEDPEVKFNWYVDGVEVHNAKTKPREEQQNSTYRVVSVLTVLHQDWLNGKEYKCKVSNKALKAPIEKTISKAKGQPREPQVYTLPPSRDELTKNQVSLTCLVKGFYPSDIAVEWESNGQPENNYKTTPPVLDSDGSFFLYSKLTVDKSRWQQGNVFSCSVMHEALHNHYTQKSLSLSPGGGGSGGGGSGGGGSTALGRRKAEDRIKETLWADGVKIDEKDFEHIKSSHEDYFAVEYGKGSGYYDVNKKMDSEDTALCVGAVVTNMFHWWVDQNRENIEKFKKQDPENNGVMKFEGVKEATVDELNHFYRDNRDNYADQSRFFDLIKKHFGNKALNPEELFELYFNGFYYGSSHRYIEDNEPAQNNLFSKVLENNKLLNPERSYGIDGFSNNVINALKSHKVLGLVHTTPLRYRHIISMWGADIDQDGKVKAIYVTDSDDREITFNDNSKRRIGMIRYDVLVDDNGNIRFTGKGATHKEEGAIYAGLYSLSRGDEVWEDYFKKYPEVQENL
In the case of B6, the “EC50 CE-SDS IgE” value was found to be 68.5 nM.

B7: FP15 (Fc fusion)
chain: B6 chain with T301S, R458T
B7: the “EC50 CE-SDS IgE” value is 54.7 nM.

B8: FP14 (Fc fusion)
chain: B6 chain with H453Y, R458T
With B8, the “EC50 CE-SDS IgE” value is 31.9 nM.

B9: FP121 (Fc fusion)
chain: B6 chain with H353E, H453Y
As for B9, the “EC50 CE-SDS IgE” value amounted to 1.22 nM and the “EC50 MSD IgE” value was determined as 1.25 nM.

B10: FP12 (Fc fusion)
chain: B6 chain with H453Y
Regarding B10, the “EC50 CE-SDS IgE” value was determined as 43.3 nM and the “EC50 MSD IgE” value amounted to 0.753 nM.

B11: FP2 (Fc fusion)
chain: DKTHTCPPCPAPEAAGAPSVFLFPPKPKDTLMISRTPEVTCVVVDVSHEDPEVKFNWYVDGVEVHNAKTKPREEQQNSTYRVVSVLTVLHQDWLNGKEYKCKVSNKALKAPIEKTISKAKGQPREPQVYTLPPSRDELTKNQVSLTCLVKGFYPSDIAVEWESNGQPENNYKTTPPVLDSDGSFFLYSKLTVDKSRWQQGNVFSCSVMHEALHNHYTQKSLSLSPGGGGSGGGGSGGGGSTALGRRKAEDRIKETLWADGVKIDEKDFEHIKSSHEDYFAVEYGKGSGYYDVNKKMDSEDTALCVGAVVTNMFHWWVDQNRENIEKFKKQDPENNGVMKFNGVKEATVDELNHFYKEYQSNKYADQSRFFDLIKKHFGNKALNPEELFELYFNGFYYNSSHRYIEDNKPAQNNLFSKVLENNKLLNPERSYGIDGFSNNVINALKSHKVLGLVHTTPLRYRHIISMWGADIDQDGKVKAIYVTDSDDREITFNDNSKRRIGMIRYDVLVDDNGNIRFTGKGATHKEEGAIYAGLYSLSRGDEVWEDYFKKYPEVQENL
With B11, the “EC50 CE-SDS IgE” value is 212 nM and the “EC50 MSD IgE” value was 140 nM.

B12: FP6 (Fc fusion)
chain: B11 chain with N341E, N398Q, K408E, R459T
Turning to B12, the “EC50 MSD IgE” value stood at 99.4 nM.

B13: FP3 (Fc fusion)
chain: B11 chain with N398Q
B13: the “EC50 CE-SDS IgE” value came out at 71.5 nM and the “EC50 MSD IgE” value came to 114 nM.

B14: FP134 (Fc fusion)
chain: DKTHTCPPCPAPEAAGAPSVFLFPPKPKDTLMISRTPEVTCVVVDVSHEDPEVKFNWYVDGVEVHNAKTKPREEQQNSTYRVVSVLTVLHQDWLNGKEYKCKVSNKALKAPIEKTISKAKGQPREPQVYTLPPSRDELTKNQVSLTCLVKGFYPSDIAVEWESNGQPENNYKTTPPVLDSDGSFFLYSKLTVDKSRWQQGNVFSCSVMHEALHNHYTQKSLSLSPGGGGSKGGGSKGGGSKTALGRRKAEDRIKETLWADGVKIDEKDFEHIKSSHEDYFAVEYGKGSGYYDVNKKMDSEDTALCVGAVVTNMFHWWVDQNRENIEKFKKQDPENNGVMKFEGVKEATVDELNEFYRDNRDNYADQSRFFDLIKKHFGNKALNPEELFELYFNGFYYGSSHRYIEDNEPAQNNLFSKVLENNKLLNPERSYGIDGFSNNVINALKSHKVLGLVYTTPLRYRHIISMWGADIDQDGKVKAIYVTDSDDREITFNDNSKRRIGMIRYDVLVDDNGNIRFTGKGATHKEEGAIYAGLYSLSRGDEVWEDYFKKYPEVQENL
Consider B14, for which the “EC50 CE-SDS IgE” value came out at 2.36 nM.

B15: FP137 (Fc fusion)
chain: B14 chain with G228S, G229A, S230G, G233S, G234A, S235G, G238S, G239A, S240G
Take B15: the “EC50 CE-SDS IgE” value was 1.28 nM.
